{"source": "paper PMC8890701", "about": "(Science Advances, 2022)", "molecules": {"B1": {"name": "sybody C (VHH)", "VHH": "QVQLVESGGGSVQAGGSLRLSCAASGTIHAIGYLGWFRQAPGKEREGVAALTTYDGWTYYADSVKGRFTVSLDNAKNTVYLQMNSLKPEDTALYYCAAADDGWMFPLYHNHYEYWGQGTQVTVSA"}}, "key": {"[1]": {"molecular_target": "S. pneumoniae LicB (S. pneumoniae)", "experiment": "cryo-EM structure"}, "[2]": {"molecular_target": "T1, S. pneumoniae LicB (Streptococcus pneumoniae TIGR4 (ATCC …))", "T1 chain": "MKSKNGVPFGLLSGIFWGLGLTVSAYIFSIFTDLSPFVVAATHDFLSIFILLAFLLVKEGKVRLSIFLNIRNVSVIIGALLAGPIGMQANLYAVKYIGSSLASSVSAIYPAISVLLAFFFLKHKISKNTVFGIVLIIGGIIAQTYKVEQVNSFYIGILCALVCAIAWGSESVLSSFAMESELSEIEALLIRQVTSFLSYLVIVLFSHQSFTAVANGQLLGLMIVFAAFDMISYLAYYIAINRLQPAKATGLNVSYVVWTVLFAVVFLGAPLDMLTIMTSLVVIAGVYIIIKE", "experiment": "cryo-EM structure"}}}
{"molecule": "S. pneumoniae LicB (natural protein)", "values": [{"measurement": "stoichiometry N", "setting": "[1]", "result": 2}]}
{"molecule": "B1", "values": [{"measurement": "binding result", "setting": "[2]", "result": "binds"}]}
